Test results published in publication doi:10.1101/2025.03.20.644338 (bioRxiv, 2025).

How the values were obtained:
Assay in all cases: ITC
[1] = biological target: wild-type mouse Rbpj core (residues 53-474) (mouse, UniProt P31266 53-474)
[2] = biological target: mouse Rbpj core (residues 53-474) S358R variant (mouse, UniProt P31266 53-474, S358R)
[3] = biological target: mouse Rbpj core (residues 53-474) F92V variant (mouse, UniProt P31266 53-474, F92V)
[4] = biological target: mouse Rbpj core (residues 53-474) R91G variant (mouse, UniProt P31266 53-474, R91G)
Chain of mouse Rbpj core (residues 53-474) R91G variant (P31266 53-474 R91G): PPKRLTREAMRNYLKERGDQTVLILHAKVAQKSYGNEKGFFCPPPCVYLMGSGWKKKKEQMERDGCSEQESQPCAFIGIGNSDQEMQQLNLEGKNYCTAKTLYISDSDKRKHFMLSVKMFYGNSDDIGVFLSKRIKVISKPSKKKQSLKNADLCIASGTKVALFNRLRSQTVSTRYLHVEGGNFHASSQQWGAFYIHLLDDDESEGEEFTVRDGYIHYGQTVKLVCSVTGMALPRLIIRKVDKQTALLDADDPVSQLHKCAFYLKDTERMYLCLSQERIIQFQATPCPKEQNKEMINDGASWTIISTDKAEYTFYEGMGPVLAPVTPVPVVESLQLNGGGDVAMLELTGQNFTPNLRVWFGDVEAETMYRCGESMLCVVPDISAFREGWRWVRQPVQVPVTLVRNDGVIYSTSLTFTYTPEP

Measured: binding result

Chain of mouse Rbpj core (residues 53-474) F92V variant (P31266 53-474 F92V): as the sequence (P31266 53-474 R91G) above, with G39R, F40V counted along it
Chain of mouse Rbpj core (residues 53-474) S358R variant (P31266 53-474 S358R): as the sequence (P31266 53-474 R91G) above, with G39R, S306R counted along it
Chain of wild-type mouse Rbpj core (residues 53-474) (P31266 53-474): as the sequence (P31266 53-474 R91G) above, with G39R counted along it

VLLSRKRRRQHGQLWFPEGFKVSEASKK [peptide consisting of residues 1754-1781 of human NOTCH1]
binds: all assays above

B1: human SHARP residues 2776-2833 (domain or fragment)
chain: RASANENSRFHPGSMPVIDDRPADAGSGAGLRVNTSEGVVLLSYSGQKTEGPQRISAK
binds: [1] | [2] | [3]
